Data published in patent publication US20210024639A1 (AGOMAB THERAPEUTICS, published 2021).
Substitutions are numbered along the chain they refer to.

B1: chimeric llama-human IgG1 mAb 71D6 (antibody, V domains shown)
VH: ELQLVESGGGLVQPGGSLRLSCAASGFTFSSYGMSWVRQAPGKGLEWVSAINSYGGSTSYADSVKGRFTISRDNAKNTLYLQMNSLKPEDTAVYYCAKEVRADLSRYNDYESYDYWGQGTQVTVSS
VL: QPVLNQPSALSVTLGQTAKITCQGGSLGARYAHWYQQKPGQAPVLVIYDDDSRPSGIPERFSGSSSGGTATLTISGAQAEDEGDYYCQSADSSGSVFGGGTHLTVL
B2: chimeric llama-human IgG1 mAb 71C3 (antibody, V domains shown)
VH: B1 VH with E1Q, Y32H, G33A, Y54G, V100L, A102F, S105A, N108T, S112A, Y113W
VL: SYELTQPSALSVTLGQTAKITCQGGSLGSSYAHWYQQKPGQAPVLVIYDDDSRPSGIPERFSGSSSGGTATLTISGAQAEDEGDYYCQSADSSGNAAVFGGGTHLTVL

Tests used:
[1] = biological target: T1, native human MET on living human cells (human, UniProt P08581 25-1390); assay: cell-based or functional assay
[2] = biological target: T2, native mouse MET on living mouse cells (mouse, UniProt P16056 25-1379); assay: cell-based or functional assay
[3] = biological target: T1, native human MET on living human cells; assay: cell-based or functional assay; remark: listed apart in the source
[4] = biological target: T2, native mouse MET on living mouse cells; assay: cell-based or functional assay; remark: listed apart in the source
[5] = biological target: T1, native human MET on living human cells; assay: flow cytometry, A549 cells
Procedure: (§1) We also analysed whether chimeric anti-MET antibodies bound to native human and mouse MET in living cells. […] Antibody binding to cells was analysed by flow cytometry using phycoerythrin-conjugated anti-human IgG1 antibodies (eBioscience) and a CyAn ADP analyser (Beckman Coulter). As a positive control for human MET binding, we used a commercial mouse anti-human MET antibody (R&D Systems) and phycoerythrin-conjugated anti-mouse IgG1 antibodies (eBioscience). As a positive control for mouse MET binding we used a commercial goat anti-mouse MET antibody (R&D Systems) and phycoerythrin-conjugated anti-goat IgG1 antibodies (eBioscience). […] Consistent with the data obtained in ELISA, maximal binding (EMAX) varied depending on antibody, but was similar in human and mouse cells.

[6] = biological target: T2, native mouse MET on living mouse cells; assay: flow cytometry, MLP29 cells
Procedure: as §1

[7] = biological target: human MET ECD mutant A (mutations 1, 2, 3) (human) (UniProt P08581); assay: ELISA, MET ECD mutant in solid phase, mAb 0-50 nM
[8] = biological target: human MET ECD mutant D (mutations 1, 2) (human) (UniProt P08581); assay: ELISA, MET ECD mutant in solid phase, mAb 0-50 nM
[9] = biological target: human MET ECD mutant E (mutations 2, 3, 4) (human) (UniProt P08581); assay: ELISA, MET ECD mutant in solid phase, mAb 0-50 nM
[10] = biological target: human MET ECD mutant H (mutations 2, 4) (human) (UniProt P08581); assay: ELISA, MET ECD mutant in solid phase, mAb 0-50 nM
[11] = biological target: T3, human MET extracellular domain (ECD) (human, UniProt P08581 25-932); assay: ELISA, MET ECD in solid phase, mAb 0-50 nM
T3 construct: range 1-932; recombinant ECD; also called hMET; human MET ECD
Procedure: Using human MET as a template, we mutagenized each of these residues in different permutations, generating a series of MET mutants that are fully human except for specific residues, which are llama. Next, we tested the affinity of selected SEMA-binding mAbs (71D6, 71C3, 71D4, 71A3, 71G2) and PSI-binding mAbs (76H10 and 71G3) for these MET mutants by ELISA. To this end, the various MET proteins were immobilized in solid phase (100 ng/well in a 96-well plate) and then exposed to increasing concentrations of antibodies (0-50 nM) solution. […] Wild-type human MET was used as positive control.
TABLE 18 The epitopes of MET responsible for agonistic antibody binding represent residues conserved among H. sapiens, M. musculus, R. norvegicus, M. fascicularis but not among the same species and L. glama. The relevance of residues conserved among human, mouse, rat, cynomolgus monkey but not llama MET for binding to agonistic mAbs was tested by ELISA. Wild-type (WT) or mutant (MT) human MET ECD was immobilized in solid phase and exposed to increasing concentrations of mAbs in solution. […] All binding values were normalized to the WT protein and are expressed as % binding (EMAX) compared to WT MET.

[12] = biological target: T4, human MET-Fc chimeric protein (R&D Systems) (human, UniProt P08581 25-932); assay: competition ELISA, hMET-Fc in solid phase, competitor 0.3 nM biotinylated hHGF
T4 construct: extracellular domain; bought (R&D Systems); also called hMET; not shown: Fc portion of human IgG1
Procedure: (§2) To investigate along this line, we tested the competition between mAbs and HGF by ELISA. Recombinant human and mouse HGF (R&D Systems) were biotinylated at the N-terminus using NHS-LC-biotin (Thermo Scientific). MET-Fc protein, either human or mouse (R&D Systems), was immobilized in solid phase and then exposed to 0.3 nM biotinylated HGF, either human or mouse, in the presence of increasing concentrations of antibodies (0-120 nM).
(§3) A MET-Fc chimeric protein (either human or mouse) was immobilized in solid phase and exposed to a fixed concentration of biotinylated HGF (either human or mouse), in the presence of increasing concentrations of antibodies. […] Antibody-HGF competition is expressed as IC₅₀ (the concentration that achieves 50% competition) and IMAX (the maximum % competition reached at saturation).

[13] = biological target: T5, mouse MET-Fc chimeric protein (R&D Systems) (mouse, UniProt P16056 25-929, limits assumed); assay: competition ELISA, mMET-Fc in solid phase, competitor 0.3 nM biotinylated mHGF
T5 construct: bought (R&D Systems); also called mMET; not shown: Fc
Procedure: as §2, §3

Row | Binder | cell scattering score, HPAF-II, 0.001 nM [1] [score 0-4] | cell scattering score, HPAF-II, 0.004 nM [1] [score 0-4] | cell scattering score, HPAF-II, 0.012 nM [1] [score 0-4] | cell scattering score, HPAF-II, 0.037 nM [1] [score 0-4] | cell scattering score, HPAF-II, 0.111 nM [1] [score 0-4] | cell scattering score, HPAF-II, 0.333 nM [1] [score 0-4] | cell scattering score, HPAF-II, 1.000 nM [1] [score 0-4] | cell scattering score, HPAF-II, 3.000 nM [1] [score 0-4] | cell scattering score, HPAF-II, 9.000 nM [1] [score 0-4] | cell scattering score, MLP29, 0.001 nM [2] [score 0-4] | cell scattering score, MLP29, 0.004 nM [2] [score 0-4] | cell scattering score, MLP29, 0.012 nM [2] [score 0-4] | cell scattering score, MLP29, 0.037 nM [2] [score 0-4] | cell scattering score, MLP29, 0.111 nM [2] [score 0-4] | cell scattering score, MLP29, 0.333 nM [2] [score 0-4] | cell scattering score, MLP29, 1.000 nM [2] [score 0-4] | cell scattering score, MLP29, 3.000 nM [2] [score 0-4] | cell scattering score, MLP29, 9.000 nM [2] [score 0-4] | protection from staurosporine, viability EC50, MCF10A [3] [nM] | protection from staurosporine, viability EMAX, MCF10A [3] [%] | also measured
1 | B1 | 0 | 1 | 2 | 3 | 4 | 4 | 4 | 4 | 4 | 0 | 1 | 2 | 3 | 4 | 4 | 4 | 4 | 4 | 1.48 | 66.8 | protection from staurosporine, viability EC50, MLP29 [4]: 0.95 nM; protection from staurosporine, viability EMAX, MLP29 [4]: 68.3%; EMAX (% relative to control) [5]: 113%; EMAX (% relative to control) [6]: 121%; % binding (EMAX) compared to WT MET [7]: 103%; % binding (EMAX) compared to WT MET [8]: 128%; % binding (EMAX) compared to WT MET [9]: 43.6%; % binding (EMAX) compared to WT MET [10]: 38.6%; % binding (EMAX) compared to WT MET [11]: 100%; IMAX (maximum % competition) [12]: 98.3%; IMAX (maximum % competition) [13]: 90.5%
2 | B2 | 0 | 0 | 0 | 0 | 1 | 2 | 3 | 4 | 4 | 0 | 0 | 0 | 0 | 1 | 2 | 3 | 4 | 4 | 31.9 | 50.2 | protection from staurosporine, viability EC50, MLP29 [4]: 31 nM; protection from staurosporine, viability EMAX, MLP29 [4]: 51.3%; EMAX (% relative to control) [5]: 106%; EMAX (% relative to control) [6]: 115%; % binding (EMAX) compared to WT MET [7]: 99.8%; % binding (EMAX) compared to WT MET [8]: 102%; % binding (EMAX) compared to WT MET [9]: 59.6%; % binding (EMAX) compared to WT MET [10]: 61.6%; % binding (EMAX) compared to WT MET [11]: 100%; IMAX (maximum % competition) [12]: 93.6%; IMAX (maximum % competition) [13]: 89.2%
